Values quoted from earlier work as cited in article PMC3012698, “Characterization of a Novel Interaction between Bcl-2 Members Diva and Harakiri” (PLoS ONE, 2010).

Conditions: ref [10]
Procedure: Circular dichroism (CD) experiments were performed on Harakiri's cytosolic domain to obtain information on its conformational behavior. […] Thus, the cytosolic domain of Harakiri is largely unstructured. Consequently, the NMR spectra of Hrk_ΔTM show small amide ^1H chemical shift dispersion (from ∼7.9 to 8.7 ppm) and severe signal overlap ( Fig. 6 ). These spectral features together with the absen ...

Substance	folding upon binding to Bcl-2 members	structural state of unbound BH3-only protein
Bim: BH3-only protein Bim	undergoes partial folding upon binding to Bcl-2 members	unstructured
Bmf: BH3-only protein Bmf		unstructured
